Assay results from the DeepSol protein solubility set.

Assay: soluble on expression in E. coli; label from the status in PepcDB or PDB records

Row | Sequence | soluble on expression in E. coli
1 | MKVYVVVPTYNESDNIVALMEKILAQRDNIHVLVVDDNSPDGTGEIAARMSSDNPRIHVLRRSGKMGLGSAYCDGFRVALRDGADFIIEMDADFSHDPATIPALLAATDKYDVVVGSRYLNGVSVVNWPIRRLMLSYFASVYTRFVTGLALRDCTSGFKCFRRRVIESVDLDTIRSDGYSFQIEMNYRCVERGFRVGEIPIIFIDRHAGSSKMSKKIVREAVLMVWKLKLGSLVKKLTRRGDRHAALEHHHHHH | soluble
2 | MKWDEYVDIFDTDVVSKIIILRNLPINEGWIDINELAEELQLNKKSVKKYVELLKDDITYYVVDNDASLAFEKGHGYRLNLASSQAFQKLYTAIFRDSLTYQVMEDLFWGRFNGIVPATAKYHTSDATIRRLLKGFTEILAPLGLVINKSTWKIEGNEAYLRHFAYTIFMDLIRDTWPFDYIQETEVAQTVQKMMAFFNVEVAETVTRRVKYMVAISKVRSAQGAEYRPSAEQETYLEGNKHYQAFIEEMTATTLFLNKNDLTFVYFFLLANDQFYQDEATAQAILAHFDETEAPVYMLTHLVQHFLLEEIHMTPQLEKIRPQIFYYLFATHLFAELYYVQNVKMYNVFWNKIKEKYPVLLAELIQGLNQLYEQTGNELFTNKEFLALRYSSVLALSNDLIHREQKIVLGLKSGLPVLEEERVKLSIENNFRRFYALEVLRYSEASKEEWQNIDLLLVTSLADVETGHPEIFLFSSELTFEQYNRLNQKIVKINEKRTTSL | not soluble
3 | MKWRCLIYIETRGDILFMTKWFNVGKIVNTHGVRGEIRVISRTDFPEERYKVGNTLYISNEKGTDYLPVKVTSHRQHKTFDLLTFEGYNNVDEVEKFKGSLIKVPEEQLGELAEGEYYYHEIIGCSVVTEEGEALGTIKEILSPGANDVWVIKRPKGQDLLIPYIDDVVLQVNIENKLVTIHVMEGLLLEHHHHHH | soluble
4 | MKWSEYANLAQQSLEKFYLADTKEQFLNNFYPTENPEEDNKVFNYWWLAHLVEVRLDAYLRTKKQADLEVAEKTYLHNKNRNGGTLIHDFYDDMLWNALAAYRLYKATGKSIYLEDAQLVWQDLVDTGWNDIMGGGFAWRRPQMYYKNTPVNAPFIILSCWLYNELNETKYLEWAMKTYEWQTKVLVREDGFVEDGINRLEDGTIDYEWKFTYNQGVYIGANLELYRITKEAKYLDTANKTAAISLKELTEDGIFKDEGNGGDEGLFKGIFYRYFTDLIEETANKTYRDFVLNSCQILVENAKLDGYLLMGMNWKEKPSGKIPYSAELSGMIALEMAAKLELEHHHHHH | soluble
5 | MKYDLIIIGSGSVGAAAGYYATRAGLNVLMTDAHMPPHQHGSHHGDTRLIRHAYGEGEKYVPLVLRAQMLWDELSRHNEDDPIFVRSGVINLGPADSTFLANVAHSAEQWQLNVEKLDAQGIMARWPEIRVPDNYIGLFETDSGFLRSELAIKTWIQLAKEAGCAQLFNCPVTAIRHDDDGVTIETADGEYQAKKAIVCAGTWVKDLLPELPVQPVRKVFAWYQADGRYSVKNKFPAFTGELPNGDQYYGFPAENDALKIGKHNGGQVIHSADERVPFAEVVSDGSEAFPFLRNVLPGIGCCLYGAACTYDNSPDEDFIIDTLPGHDNTLLITGLSGHGFKFASVLGEIAADFAQDKKSDFDLTPFRLSRFQ | soluble
6 | MKYIVLLGDGMSDEPMQELGGKTPLQAARTPHMDAMARRGRIGLARTVPEGYPPGSDVANLSVFGYDPRACYTGRSPLEAASMGVELGSADVAFRVNLVNLAPTRGTLVMNDYSAGHISTAEGRELIEAIQGVMGTDEFQFYPGVGYRHLMVWRNGKCGMTVVPPHDISGQSILEHLPKGEGAERLIELMNSSQLVLNNHPQYRRRLEEGKVPANSIWLWGHGKAPRMASFHEKFGLTGAVISAVDLVRGIGVCAGLDVIKVEGATGYIDTNYEGKVTAALEALEAHDYVYLHVEAPDEAGHGGNLEHKLKAIEDFDARVVGPIMAGMEKFGSYRILCTPDHPTPLRLKTHTDAPVPFVLFSGETSENAGVAGYDEESARSAGLVVEDGFRLMEMMLDRLEHHHHHH | soluble
7 | MKYPQVWDLDTFFKGGSQSSDFQHFVKETEELVDKLVASTSAKMTLAQLVNELVNVQKVMQRLRHGAAFVSCLKAQNVKDEHAFQWQGKLNELQAKLQNIWVELEATFGRMEDGEWQELLNHPQLSDITFSLNERRQAAAEKLAPEQEKLVAQLAVDGYHAWGEVYNQAVGRMEIPFEEDGETKRLSP | not soluble
8 | MKYTKGTYSSSAKGHSSNVNLTVNFDSDKIKNVSINVEGETSQRNKDVVSQLSAQILKKQDDSLDAVTGATETSNAVRRALTDCIKQATGDTENQTKTPLKDGTYTETVPSYSLIAPMTGEVTIKNNKIKNIKITSEKDSQTSPWFHVAEKKFIPRLIESQSLDTDAVTGASVSSGAIKSIAEKAIKDAGGNNDEWHTPVTKKNDTVEKKDFDVIVVGLGGSGILSYCAAAKSGAKVFGLDIAAGIGGNSISTSGPMVVNSKIQSKKYNDGKDNIDPEDLYNTWIDYVKTDKKAAVIKKAIYEDGPALDYYMKNFGFSFDSPAFGMPAGYFPSFVRQDWTKEWAVYTAKDNKWYSAGQPVHIDQYQNALDKAKGMNPVNDYQLELAAKDFIKDDSGKVIGVKAVSYDGTTYNIYGRAVILASGGFVGNNQMMKDVYGHTCHTFGSTTAKGQGIKMGQSIGGNTYALRTLPMIHISQVPNIIRDDSLTPDQKATLSALAITSDAKQIDETGNILGSKDESGIEESKLTVGIAYAPGFHYFNAYTKEDLDKMKNEGVSETTSKVVVIILDQGGKVPAAHTPIKDIDKIVDEAIKHGDAWKGTPSELAKQLNMDEAKLTKSLGDPNKEYYLFEAAGYAYATCGGLDVDEDMNVLRQDGSKIENVFAVGQDSEGVENRNDEAYTPWGGQAQAWTFVSGKIAGENAAKILEHHHHHH | soluble
9 | MLADKESLIEALKLALSTEYNVKRNFTQSVEIILTFKGIDMKKGDLKLREIVPLPKQPSKAKRVLVVPSSEQLEYAKKASPKVVITREELQKLQGQKRPVKKLARQNEWFLINQESMALAGRILGPALGPRGKFPTPLPNTADISEYINRFKRSVLVKTKDQPQVQVFIGTEDMKPEDLAENAIAVLNAIENKAKVETNLRNIYVKTTMGKAVKVKR | soluble
10 | MLAEIKGLNEECGVFGIWGHENAAQVSYYGLHSLQHRGQEGAGIVVNNGEKIVGHKGLGLISEVFSRGELEGLNGKSAIGHVRYATAGGSEVANVQPLLFRFSDHSMALAHNGNLINAKMLRRELEAEGSIFQTSSDTEVLLHLIKRSTKDSLIESVKEALNKVKGAFAYLLLTGNEMIVALDPNGFRPLSIGKMGDAYVVASETCAFDVVGATYIRDVEPGELLIINDEGIHVDRFTNEVDHAICSMEYIYFARPDSNIAGINVHAARKNMGKRLAAEAPIEADVVTGVPDSSISAAIGYAEATGIPYELGLIKNRYVGRTFIQPSQELREQGVKMKLSAVRGVVEGKRVVMIDDSIVRGTTSKRIVRMLREAGATEVHVRIASPPLKYPCFYGIDIQTRKELIAANHTVEEIREMIGADSLTFLSEDGLVDAIGRPYEGKYGGLCMAYFNGDYPTALYDYEQELLESMK | not soluble
11 | MLAGLGEGGRVYIADLAIGPVALRDDGSIEEYELFPRSVDEAVTEALRLEEEGFTLAHEKLGKKLVESGVGSLVVESEDTARHFSKLGLSVKVEPGNNVALSARERLVSLGVELGFFGSEDDALSWLYEVEVEYTRRKLRGAAQKRDMLAAQAIRAIDDIDKTVNLFVARLREWYSIHFPELNDLVREHEDYVKIVSAVGHRDNITVERLVDLGFSEEKARRIAEAAKQSIGADLSEIDIQAVQTLARITSELYQLRRRLTEYIEQVMNEVAPNITALVGPLLGARLISLAGGLDKLARMPASTIQVLGAEKALFRALRTGGKPPKHGIIFQYPDIHRSPKWQRGKIARALAAKLAIAAKVDAFTGRFIGDKLREELRRRIAEIKKIYAKPPKRKREEKPPQPRRARPPRRGRPPRRRRGGRRLEHHHHHH | soluble
12 | MLASAILPVVSFAESDPLDVLLKKLEEKGVITKEEAKEVKKVAKKHPHLKVKIRLQPRIDFGDIYKENNDYKSRSDFYFRRVRLEISKEWKNIPFGKKLKINFTLHSDKGERDYDYKKGEKEHHSFDPKVKYAYADWTFVDEFAVRIGKNKIPYSRVSLTSSSRQLLIERPYVTEDAKKWLGDYDSNQIMFHGKVAGGIFRYMLSIWDGSTIESKNKTGGTVKADTSLGDAYAIRLEFSPPGFVEKKKDDTGIGEKNKGDVISVGLNYAKNSDFDITDKNIKNEEATVWGGDIFGRFHLGPGALVAQAEYVKMKYDKLDLEEKGYYIQAGYLIPTPYGKFEPAARYEHFKQEDKKNDVTKHKKDIITLGFNHYIKGHKIKWGYNVLFIDNKEKDEKDQTVHQIQMQFYF | not soluble
